This is an account of results in US20220213140A1.

Assay [1] has as its target tocilizumab. The assay is described as follows: BLI (BLItz), biotinylated ligand on sensor, antibody in solution.
For assay [2], the target named is tocilizumab. As to the kind of experiment: BLItz biolayer interferometry; biotinylated ligand immobilized on the chip, tocilizumab at 41.34, 82.68 and 165.3 nM in PBS (+0.1% BSA); same fitted value in all three rows of the table [C].
Chain of tocilizumab (VH, as listed by the source, chain 1 of 2): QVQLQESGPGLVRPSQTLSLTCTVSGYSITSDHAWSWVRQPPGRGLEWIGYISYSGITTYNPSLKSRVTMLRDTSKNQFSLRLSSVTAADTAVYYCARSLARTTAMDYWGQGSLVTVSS
Chain of tocilizumab (VL, as listed by the source, chain 2 of 2): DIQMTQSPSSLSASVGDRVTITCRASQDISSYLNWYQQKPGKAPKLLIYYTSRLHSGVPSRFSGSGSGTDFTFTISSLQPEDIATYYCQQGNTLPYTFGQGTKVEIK

For orientation: Kd means the concentration at which binding is half-saturated. The term koff denotes the first-order rate constant of dissociation. A higher koff goes with fast dissociation. As usually defined, the kon is the rate constant with which the complex forms. Low values mean slow association, high ones fast association. In assay [1], ligand of MabSelect SuRe yielded a Kd of 8.11 nM. In assay [2], this substance gave a koff of 0.00281 s⁻¹ and a kon of 346000 M⁻¹ s⁻¹.
